# B1: LreRihC_HisC (Limosilactobacillus reuteri) (protein)
# chain: MTTKIIMDTDPGIDDAAALTMAINDPSLDLKLVTTVAGNVTADKTTANALKIIHFFGKDIPVAAGAKQPLIKPFEDAARIHGESGMPGYDFGDDYGKPLDKTAVEALHDAIMAEDEVILVPTGSYTNIALLFSEYPEVKSHIKQIVAMGGSFSGGNMTSAAEFNVFTDPDAAKIMYNAGVPIVTVGLDVTLKALLTADTIEKLGSLNKTGEMLHGLITHYNDGNDQGRPMHDVNTIFYLLHPEAFTTKDMWVDIQTDGPAIGATVGDIRAAYHDGKTNAKVCLDIDAEYFNKWFLEEVSKMK
# notes: E. coli BL21(DE3), pET24a(+); tetramer (123 kDa)
# B2: ribonucleoside hydrolase C from Limosilactobacillus reuteri LR1 with the addition of His-tag to the N-terminus of the enzyme (enzyme, UniProt A5JJT3 1-302, looked up)
# chain: B1 chain
# notes: Ribonucleoside hydrolase C (RihC) of Limosilactobacillus reuteri LR1, cloned from genomic DNA with primers from the start codon to the stop codon; 308 residues and 33.38 kDa with the His-tag; The residue numbers printed for the crystal structure (D16, D20, D21, loop DGNDQ 228-232) seem to count on the tagged construct (surmised from the primer); Each subunit holds one Ca2+ ion; source: E. coli …
# B3: ribonucleoside hydrolase C from Limosilactobacillus reuteri LR1 with the addition of His-tag to the C-terminus of the enzyme (enzyme, UniProt A5JJT3 1-302, looked up)
# chain: B1 chain
# notes: 308 residues and 33.38 kDa with the His-tag; PDB 8QND is the structure of the N-terminally tagged form of the same protein; source: E. coli BL21(DE3), purified (HisTrap FF, desalted on Sephadex G25); not shown: His6, C-terminal, kept
# B4: LreRihC_HisN (Limosilactobacillus reuteri) (protein)
# chain: TTKIIMDTDPGIDDAAALTMAINDPSLDLKLVTTVAGNVTADKTTANALKIIHFFGKDIPVAAGAKQPLIKPFEDAARIHGESGMPGYDFGDDYGKPLDKTAVEALHDAIMAEDEVILVPTGSYTNIALLFSEYPEVKSHIKQIVAMGGSFSGGNMTSAAEFNVFTDPDAAKIMYNAGVPIVTVGLDVTLKALLTADTIEKLGSLNKTGEMLHGLITHYNDGNDQGRPMHDVNTIFYLLHPEAFTTKDMWVDIQTDGPAIGATVGDIRAAYHDGKTNAKVCLDIDAEYFNKWFLEEVSKMK
# notes: E. coli BL21(DE3), pET24a(+); tetramer (121 kDa)
# How the values were obtained:
# purified protein = substrate: Nc1ccn([C@@H]2O[C@H](CO)[C@@H](O)[C@H]2O)c(=O)n1; assay: purified protein; details: Tris-HCl pH 7.5
# [1] = substrate: Nc1ncnc2c1ncn2[C@@H]1O[C@H](CO)[C@@H](O)[C@H]1O; assay: HILIC-HPLC of released nucleobase, Michaelis-Menten fit; format: biochemical, Limosilactobacillus reuteri; details: Tris-HCl pH 7.5
# Source text: (§1) HILIC-HPLC of released nucleobase, Michaelis-Menten fit on LreRihC_HisC
# [2] = substrate: O=c1[nH]c(=O)c2ncn([C@@H]3O[C@H](CO)[C@@H](O)[C@H]3O)c2[nH]1; assay: as above; format: biochemical, Limosilactobacillus reuteri; details: Tris-HCl pH 7.5
# Source text: as §1
# [3] = substrate: OC[C@H]1O[C@@H](n2cnc3c(O)ncnc32)[C@H](O)[C@@H]1O; assay: as above; format: biochemical, Limosilactobacillus reuteri; details: Tris-HCl pH 7.5
# Source text: as §1
# [4] = target: the molecule itself; assay: SEC; analytical gel filtration on HiLoad 16/600 Superdex 200 pg, 1 mg of sample applied, mass read from a calibration curve (Gel Filtration Calibration Kit HMW)
# [5] = substrate: Nc1ncnc2c1ncn2[C@@H]1O[C@H](CO)[C@@H](O)[C@H]1O; assay: HILIC-HPLC of released nucleobase, Michaelis-Menten fit; format: biochemical, Limosilactobacillus reuteri; details: Tris-HCl pH 7.5; remark: listed apart in the source
# Source text: (§2) HILIC-HPLC of released nucleobase, Michaelis-Menten fit on LreRihC_HisN
# [6] = substrate: O=c1[nH]c(=O)c2ncn([C@@H]3O[C@H](CO)[C@@H](O)[C@H]3O)c2[nH]1; assay: as above; format: biochemical, Limosilactobacillus reuteri; details: Tris-HCl pH 7.5; remark: listed apart in the source
# Source text: as §2
# [7] = substrate: O=c1ccn([C@@H]2O[C@H](CO)[C@@H](O)[C@H]2O)c(=O)[nH]1; assay: as above; format: biochemical, Limosilactobacillus reuteri; details: Tris-HCl pH 7.5
# Source text: as §2
# [8] = substrate: OC[C@H]1O[C@@H](n2cnc3c(O)ncnc32)[C@H](O)[C@@H]1O; assay: as above; format: biochemical, Limosilactobacillus reuteri; details: Tris-HCl pH 7.5; remark: listed apart in the source
# Source text: as §2
protein,measurement,setting,value
B1,Km,purified protein,620 ± 60 µM
same,kcat,purified protein,58 ± 6 s⁻¹
same,Km,[1],480 ± 90 µM
same,kcat,[1],65 ± 7 s⁻¹
same,Km,[2],1300 ± 200 µM
same,kcat,[2],40 ± 6 s⁻¹
same,Km,[3],2600 ± 600 µM
same,kcat,[3],18 ± 6 s⁻¹
B2,stoichiometry N,[4],4
B3,stoichiometry N,[4],4
B4,Km,purified protein,680 ± 80 µM
same,kcat,purified protein,112 ± 4 s⁻¹
same,Km,[5],420 ± 50 µM
same,kcat,[5],118 ± 4 s⁻¹
same,Km,[6],1200 ± 200 µM
same,kcat,[6],57 ± 8 s⁻¹
same,Km,[7],320 ± 40 µM
same,kcat,[7],167 ± 6 s⁻¹
same,Km,[8],2500 ± 600 µM
same,kcat,[8],30 ± 5 s⁻¹
